The source of these data is patent WO2021251460A1 (dated 2021).

The target of test [1] is T1, human Glypican-1 (human, UniProt P35052 24-530).
T1 construct: Endogenous GPC1 on human cancer cell lines: BxPC-3 in the FACS and internalization assays; TE8, TE14, BxPC3, KP-2 and PK-8 in the ADC assay; also called GPC-1; GPC1
T1 sequence: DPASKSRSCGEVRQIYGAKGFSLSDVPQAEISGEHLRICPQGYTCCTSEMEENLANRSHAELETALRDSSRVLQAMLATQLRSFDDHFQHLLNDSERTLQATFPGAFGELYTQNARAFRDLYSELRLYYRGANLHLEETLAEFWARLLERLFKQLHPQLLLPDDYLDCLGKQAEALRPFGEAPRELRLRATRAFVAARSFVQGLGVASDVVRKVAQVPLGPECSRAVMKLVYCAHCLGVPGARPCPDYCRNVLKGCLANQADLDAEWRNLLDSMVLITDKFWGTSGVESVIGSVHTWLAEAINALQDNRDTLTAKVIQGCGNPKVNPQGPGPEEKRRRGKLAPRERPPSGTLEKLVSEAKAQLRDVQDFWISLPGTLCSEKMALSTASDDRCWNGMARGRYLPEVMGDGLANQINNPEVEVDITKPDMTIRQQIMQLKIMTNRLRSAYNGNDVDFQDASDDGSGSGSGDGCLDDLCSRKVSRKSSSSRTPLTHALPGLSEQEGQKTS
Briefly: FACS on BxPC-3 cells pre-treated with GPC1-ADC (01a033) MMAE, streptavidin-PE detection.

The target of test [2] is T1, human Glypican-1. Briefly: FACS titration on BxPC-3 cells, FITC anti-mouse IgG secondary.

B1: biotin-labeled anti-GPC1 antibody 02b006 (antibody, mouse IgG2a, kappa, V domains shown)
VH: EVQLVESGGGLVKPGGSRKLSCAASGFTFSDYGMHWVRQAPEKGLEWVAYISSGSSTIYYADTVKGRFTISRDNAKNTLFLQMTSLRSEDTAIYYCVRHSYYNYDIGGYYAMDYWGQGTSVTVSS
VL: DIVLTQSPSSLSASLGERVSLTCRASQEISGYLSWLQQKPDGTIKRLIYAASTLDSGVPKRFSGSRSGSDYSLTISSLESEDFADYYCLQYASYPLTFGAGTKLEIKR
modifications: biotin-labeled (site not given)
notes: Detection antibody for GPC1 left on the cell surface in the internalization assay, read out with streptavidin-PE; also called anti-GPC1 mAb (biotin-labeled 02b006); K090-02b006
For B1, the binding result with human Glypican-1 [1] is “binds”.

B2: anti-GPC1 monoclonal antibody (clone K090-01a033) (antibody, mouse IgG2a, kappa, V domains shown)
VH: QVQLKQSGPELVKPGASVKISCKASGYSFTGYYMHWVKQSPEKSLEWIGEINPSTGDTTYNQKFKAKATLTVDKSSSTAYMQLKSLTSEDSAVYYCAREKRDDGVFAYWGQGTLVTVSS
VL: DIVMSQSPKSMSMSVGERVALSCKASENVGTYVSWYQQKPEQSPKLLIYGASNRYTGVPDRFTGSGSATDFTLTISSVQAEDLADYYCGQSYSYPLTFGAGTKLELKR
notes: Mouse monoclonal antibody; mouse IgG2a kappa (MOPC173) was used as its isotype control; also called mouse anti-GPC-1 clone 01a033; mouse anti-human Glypican-1 mAb (01a033)
Regarding B2, in the test with human Glypican-1 [2], the binding result is “binds”.

B3: GPC1-ADC (01a033) MMAE (antibody, mouse IgG2a, kappa, V domains shown)
VH: QVQLKQSGPELVKPGASVKISCKASGYSFTGYYMHWVKQSPEKSLEWIGEINPSTGDTTYNQKFKAKATLTVDKSSSTAYMQLKSLTSEDSAVYYCAREKRDDGVFAYWGQGTLVTVSS
VL: DIVMSQSPKSMSMSVGERVALSCKASENVGTYVSWYQQKPEQSPKLLIYGASNRYTGVPDRFTGSGSATDFTLTISSVQAEDLADYYCGQSYSYPLTFGAGTKLELKR
modifications: MC-vc-PAB-MMAE on reduced interchain cysteine residues; DAR 3.7 per antibody; MC-vc-PAB-MMAE (maleimidocaproyl-valine-citrulline-p-aminobenzyloxycarbonyl-monomethyl auristatin E) on reduced interchain cysteine residues; DAR 3.7 per antibody
notes: also called GPC1-ADC (MMAE); αGPC1-CL-MMAE
Consider B3, for which the binding result with human Glypican-1 [2] is recorded as “binds”.
